Results: publication PMC5233613
Entries after “also recorded” stand apart in the source; their conditions may differ. Each block holds one substance with its values, some of them ahead of it.

How the values were obtained:
LC3B 1-125 [1] = target: LC3B 1-125 (UniProt Q9GZQ8); test: ITC
LC3B 1-125 [2] = target: LC3B 1-125 (UniProt Q9GZQ8); test: ITC; details: reference: unphosphorylated peptide; sites S13
[3] = reference: wild-type LC3B, sites S17

KD (LC3B 1-125 [1]; [3]): weaker; reference 0.59 ± 0.06
Substance: FUNDC1 10-25 (from UniProt Q8IVP5) LC3B K49A

KD (LC3B 1-125 [1]; reference: unphosphorylated peptide, sites Y18): weaker; reference 1.78 ± 0.16
Substance: FUNDC1 10-25 (from UniProt Q8IVP5) pY18 peptide

KD (LC3B 1-125 [1]; reference: unphosphorylated peptide, sites S13): weaker; reference 1.78 ± 0.16
Substance: FUNDC1 10-25 (from UniProt Q8IVP5) pS13 peptide
KD (LC3B 1-125 [2]): weaker; reference 11.44 ± 1.14; also recorded: weaker; reference 5.62 ± 0.25

KD (LC3B 1-125 [1]; reference: unphosphorylated peptide, sites S17): stronger; reference 1.78 ± 0.16
Substance: FUNDC1 10-25 (from UniProt Q8IVP5) pS17 peptide

KD (LC3B 1-125 [1]; [3]): weaker; reference 0.59 ± 0.06
Substance: FUNDC1 10-25 (from UniProt Q8IVP5) LC3B K49E

KD (LC3B 1-125 [1]; [3]): stronger; reference 0.59 ± 0.06
Substance: FUNDC1 10-25 (from UniProt Q8IVP5) LC3B K49R
